The series in a line: label from the status in PepcDB records.
Consider “MTKCGHSFCYKCIHQSLEDNNRCPKCNYVVDNIDHLYPNFLVNELILKQKQRFEEKRFKLDHSVSSTNGHRWQIFQDWLGTDQDNLDLANVNLMLELLVQKKKQLEAESHAAQLQILMEFLKVARRNKREEMSGLYSPVSEDSTVPQFEAPSPSHSSIIDSTEYSQPPGFSGSSQTKKQPWYNSTLASRRKRLTAHFEDLEQCYFSTRMSRISDDSRTASQLDEFQECLSKFTRYNSVRPLATLSYASDLYNGSSIVSSIEFDRDCDYFAIAGVTKKIKVYEYDTVIQDAVDIHYPENEMTCNSKISCISWSSYHKNLLASSDYEGTVILWDGFTGQRSKVYQEHEKRCWSVDFNLMDPKLLASGSDDAKVKLWSTNLDNSVASIEAKANVCCVKFSPSSRYHLAFGCADHCVHYYDLRNTKQPIMVFKGHRKAVSYAKFVSGEEIVSASTDSQLKLWNVGKPYCLRSFKGHINEKNFVGLASNGDYIACGSENNSLYLYYKGLSKTLLTFKFDTVKSVLDKDRKEDDTNEFVSAVCWRALPDGESNVLIAANSQGTIKVLELV”, for which the protein production entry was “failed”.

In the case of “MTKFYKFLISIIILALVCLIFFLAKSNILNLDSLKNLILSSGYFAPLIYIIAFALVPLTFFPDSVLAILGGSIFGLGGGFLYTSIGALIGGSISFFISRILGQSFVEKFENDKLKNIQELLKDNGFLMILLLRLIPLFPFDLISYGAGLTKISYKDFALGTLIGTIPGILVFVNLGAQWITFNKTSIYLSVSLLILFIIVSVFLKKIYINKHLAKEN”, the protein production entry was “failed”.

Turning to “MTKILYMVVPCYNEELVLDETSERLKAKYEQLISNNIISPKSRVVYVNDGSKDKTWEKIQEKHNENPMFSGINLSRNRGHQNALLAGLMTVRNLADCVISMDADLQDDINAIDEMLEKFENENCDIVYGVRDNRDTDTVFKRRTAGAFYKLMQGLGSQSVPNHADFRLMSRRALDGLAQFPEQNLFLRGMVPLVGYKSDIVYYKRGERFAGESKYPLKKMISFALDGITSTSAAPMRLIFWIGLIWFLLAIVGAIYIIARHFINGSDVAGWASTMLAIIGFGGANLLALGVIGEYIGKIFLEVKQRPRYLIEDFINED”, the protein production entry is recorded as “failed”.

As to “MTKLERMEHPAYSQLRPVTPSASVVLCPNPGYSSLEGTNSWVIRAPEDPRSIVIDPGPEDEGHLNVLHSKAEEVGLILLTHRHYDHADGAQRFRQLTNAPVRAMDPSYCAGAEEIHDGEIITIDGVTPQIEVVATPGHTRDSVSYFIWSGVPHESTLEGIVSGDTIAGRHTTMISETDGDLGEYLNSLAILEERGKDIPLLPGHGPDGQDVSSFARKYIERRELRLNQIREVWETRGRDVSMKDLIDAIYDDVDPVLRGAAEQSTHVAIRYLQAQEASASN”, the protein production result is on record as “failed”.

Take “MTKLSDRLMEIYRLINQAARVADIGTDHAAIPIALLETNKSSFLVATDIGLGPLEKAKEQIELADLDQAKQIVLRLGDGLSVIKASDKIDTVVIAGMGGELIAKIISKIPDYLKNAKFILQPNNEEIDVRKAIEKNGQYIETEKIIYENRHFYEIIVAKRSQQGIVKMTNRELRFGPCLLKHRTSTFKNKWQERLDHSKQIEKILEKSLRTSTKRYDSLQAEIKTIEEALK”: the protein production result is reported as “not failed”.

For the sequence “MTKNDNTIFKDIYQLWFTQYKQTVKESTWVTTQRLFRLHILPIFSDYRIAKISIKDCQKAINQWFNAGLAKYHTLMNYVAKVLDYAINIDLISENPAKRVIVPVNKNDRSLEHHHHHH”, the protein production entry is reported as “not failed”.

Turning to “MTKTVEMVITGAQVLNVYTREFEATSLWIDHGRIISNLRDEPYIAAQHVDATGQWIVPGMIDAHVHMESSMVAPSELGKVLLQHGVTTIATDPHELANVAGLEHHHHHH”, the protein production result is recorded as “failed”.

On to “MTKVERLLINYKTLEEFKKFKEYGIQELSMLEELQDNIIENDSTSPFYGIYFGDKLVARMSLYQVNGKSNPYFDNRQDYLELWKLEVLPGYQNRGYGRALVEFAKSFKMPIRTNPRMKSAEFWNKMNFKTVKYDMARDKGEDPLIWHPDMDREMTPGESA”, for which the protein production entry is reported as “not failed”.

In the case of “MTLAVTAQPALAADRGHSVPLRIATYNIHAGAGSDGVFDLDRQAAALRALDADVIGLQEVDVHWGARSQGLDVAGELARRLGMRVSFAPIYSLDPVTAGEPRREYGVAVLSRFPVRSATNHEITRLSTQDENPLPAPAPGFGEVTLKVRGVPVQVFVTHLDYRADPAVRRAQVADTRRIMARERAELPGAHQFLLGDFNAEPAAPELAPLWKELSDAGAGTPATYPAQAPVKRIDYVTAGKDVRIRRTAVPEEPAASDHRPVVADVSLPRRTPGRD”, the protein production entry was “failed”.

Regarding “MTLDLFAPQPKTNLLPYDGDVEDYGCFISTAEAEQYFQYFLKHLAWRHDEARLYGKHFITPRQVAWYGDDHYRYAYSGIMRDSLPWDPQLLILKQQIEQTLAERFNSCLANLYQEGTQGMAWHSDGDMSLAKQTTIASLSLGATRKFCFRHLRTKEKIEMQLQSGQLIVMRGETQQHWQHAIMKSQKVIHPRINLTFRQFLLLEHHHHHH”, the protein production entry is given as “failed”.

As to “MTLEWEEFLDPYIQAVGELKIKLRGIRKQYRKQNKHSPIEFVTGRVKPIESIKEKMARRGITYATLEHDLQDIAGLRVMVQFVDDVKEVVDILHKRQDMRIIQERDYITHRKASGYRSYHVVVEYTVDTINGAKTILAEIQIRTLAMNFWATIEHSLNYKYQGDFPDEIKKRLEITARIAHQLDEEMGEIRDDIQEAQALFDPLSRKLNDGVGNSDDTDEEYR”, the protein production result was “not failed”.

Consider “MTLITVVFVAFALLVIFYTNFMTHTLCERKQIAASRQPGVFRVINVCITILLISSYIEIIFHGK”, for which the protein production entry is listed as “failed”.

In the case of “MTLKTFFNFTRIQTLPAALLSPIAGCLFAFWYFGSFHFWPTLLFFIGLASINLFVSAWNNLMDYQKALDPEYKKWNIIVAKSINPKLALNICLALLAIDVVVGLIVLFLTNLAILPIGGLCFLIAIFYTYGPFAFSRFPLGEILAGLCEGFFGFFLAVYINSYDKGYFFINFDRNWFMTWTWDFKILLPILLVGLMCFVQNFNIMFSDNICDLEQDIRNERYTLPYYLKIPLSLKVFTGLYLFAGLCILIAIALGILPIWSLLMSIIALKVIPNIKKFRAKQSKSETFHLQIDNLMLFNASLALTLLLGIIFK”, the protein production entry is recorded as “failed”.

Turning to “MTLLEAISNAVANQDKVDSQSDYPIPLSHDGIFANLKPKLENPNLGTLVNPISGWGISESDVEVIDLGKKFSSKLKRKLKDTNGFVKDEFVKMLKQFLEKIGEKVGISEAESEMVLGDQAGSEIQILVEKNGFLMGRDVSGLVLKGCISLEMWELVEILISNSLVDHSSYSYLVSNLVEKQRSDLLCVVIKEASDLGATELLSILKYFLCPSKEAISTMAKVREEWESQAMLAIEKVSNTELSKKSKVAEEASILLMVAHDGFSTSELCLHYLLASRNVDEVMFASAVSKLNGNEMGSFIRYLSKWMKKYEMFPQAGPCPKAASKLGLKLCNWVPELTDITKCLGLLIDENFSTLVLYSDLHEELKSIARVADGLASESKLSCFVANVVESLKLGAARN”, the protein production result is “failed”.

Consider “MTLLVGLGNPTLRYAHTRHNAGFDILDSLVSELDLSFTFSPKHNAFLCVYKDFIFLKPQTYMNLSGESVLSAKNFYKTKELLIVHDDLDLPLGVVRFKNGGGNGGHNGLKSIDLLCSNSYYRLRVGISKGIGVIEHVLSKFHKNEEPLKNAAFEHAKNALKFFIESHDFNAMQNRFTLKKPLKIES”, for which the protein production result is “failed”.

As for “MTLNRILWNYLIAPTVITIAVCGCTTQTPNTQDLIAQSPKDSQLVRTLSARSDSGYSVAYSPSSVGTILASAGAKSIKLWNPNTGKLLRTLSGQAFTVSFSPDGQILASGSQDGSLNLWDVQTGKLIRTLQHSEPVLGVVFSPDGQTLVSNLDLGSIIRLWNWRTGEIIRIKDDPDAYQKGFENFKTQPATFSLDGQTLFATSGSGSMLQSWNLKTSKRTGSFDAKSSINAVAISPDGNTLATGIRDNAIKLWNINDGKLIHTLTGHQGQVRTVAFSPDGTLLASGSSDGTVKLWNATTGKEINTFTAHKEQVWSVAFNPDGKTLASTGQDGSVKIWGVSPQ”, the protein production entry was “failed”.

As to “MTLQLNFGRVEDMNKSSLTTTALTILRVIAGFLFAAHGWQKFNEFTIAGTQASFTQMGVPGASAVAPIVATLELVGGIALIIGLLTRVFAALLAVNMLGALFLVHAPAGVFVGNGGYELVLLFAGAALALALAGAGRISADAALFGRQSSKLRVLA”, the protein production result is “failed”.

“MTLRPDPTFYPSAKLAMEGPVEKLAFTLMLSPDASKPDGLAVVDVDPTSEKFGQIVHQLIMPNKGDEFHHFGWNACSSALSPLTGHAFLERRYLIIPGIRSSRIYIVDVKEPLKAKIHKIIEPEEVFAKTGYSRPHTIHCGPEGIYVSTLGGGGEDGTDGPPGIFILDCETFEILGRYEMDRGEQTKHYDFWWNLPRDYMVSSEWGLPPQFENGIVPEDLLSNKYGHKIHFWKLRDRKNVQTIDLGANHQMALEIRPAHDPSKDYGFCGVVVDTTNLQGAIFTWWQKDDGTFEAKKTITIDPVPADADDLPDLLKGFGACPPLVTDIDLSLDDKYLYVACWGLGEMHQYDVSDPMNPVLTGKVEIGGIVKKTPHPNGKTFGYGPQMVEISRDGKRVYWTNSLYSTWDEQFYPGDRGAAMVMANVGENGGLTLDKDFWVDFPAGYRSHQIRLEGGDCSTDSFCYPSV”: the protein production entry was “failed”.

In the case of “MTLSRSSADDSTNNANRSYSAVAGTDNKRKRDEDSSDYVGVAESLEMLKKQEIDADHMAASAQQTLISWRSGENSRSLSSSGECSSSNRPESTRLQIFVRMMSGGKTIVIHAEKYDTVEKLHQRIEWKTKIPALEQRVIYKGKQLQRENSLTYYSIEQDASLQLVARMQSTEHPVAWQTIDDIMYTISRMYKGENLQSNINEKIVTFFAMIPVESDESIAKYLNIFSNSSVPAALVMLYASSLERNKSCAKSSVKLFLSNCVALPKNQKNYCLPIVLEFCKLLRKVCPDQKLYVTCRNTLGSMLETFDNPHGVYNDQYETFGVEIFPFFTELTGLLLNELAQNSGPSFCDFQKVSSFWQQLRKVIELKVAFPIPIVLPMQSTALEAEIRHLHRLFGSLLTTMDLCMCRVESSLADKEVGNSETMSSSWSQYLSILKIINSMSNIYQGAKGQLAVMLNKNKVSFSALVVKFAKRGDDHQWIFEYKEATNFEARRHLAMLLFPDVKEDFEEMHEMLIDRSNLLSESFEYIVGASPEALHGGLFMEFKNEEATGPGVLREWFYLVCQEIFNPKNTLFLRSADDFRRFSPNPASKVDPLHPDFFEFTGRVIALALMHKVQVGVLFDRVFFLQLAGLKISLEDIKDTDRIMYNSCKQILEMDPEFFDSNAGLGLTFVLETEELGKRDTIELCPDGKLKAVNSKNRKQYVDLLIERRFATPILEQVKQFSRGFTDMLSHSVPPRSFFKRLYLEDLDGMLRGGENPISIDDWKAHTEYNGFKETDRQIDWFWKILKKMTEEEQRSILFFWTSNKFVPVEGFRGLSSKLYIYRLYEANDRLPLSHTCFYRLCIPRYPTITLMEQRLRLIAQDHVSSSFGKW”, the protein production result is recorded as “failed”.

Take “MTLTRDSLLTLEAYAKVRRQEHARVIAHKKRRAVSIGNHLRLLFEDETTIRYQIHEMLHIEKIFDEDGIQAELDAYLPLVPDGSNLKATLQIEYENETQRRAALARLVGIEDRVFLRVDDEAPVYAIADEDLERDTAEKTSAVHFLRFELGDAMKAKLKAGAPLSIGCDHPHYPIQAARIDPDVAASLAGDLD”: the protein production result is “not failed”.

In the case of “MTLTSGDKQGNTPGQASDTERWASLIGGGALVLLGLRQASLRGVLTALAGGGLIYQGATKQSTIQQAQEAIGINKPIKVEKTVTINKPADELYRYWHNFENLPTFMKHLKSVKVYNEKRSHWIANAPLGNSVEWDADILEDRENEFISWASAEGADVENSGFVRFQKAPGDVPGQAASRLRGTEVKVVLEYNLPGGALAAVVAKLFGEEPEQQIGDELRRFKMLMEAGEIATTEGQPSGRK”, the protein production entry was “failed”.
